In patent US20230203131A1 (OSAKA UNIVERSITY, published 2023) one finds Kd data, which are given here for 3 molecules.

For experiment [1], the target named is Perlecan-fused Chimera-511 (Chimera-511P), not treated with thrombin (human) (UniProt P02675). The experiment in a line: solid-phase integrin binding assay (ELISA): Chimera-511P coated, α6β1 integrin titrated, as in Example 1 (5).
In experiment [2] the target is T1, α6β1 integrin (UniProt P23229 24-1011; P05556 21-728).
T1 construct: Soluble protein added to plates and detected with a biotin-labeled Velcro antibody
T1 sequence (P23229 other isoform, or with tags, fused parts or gaps, chain 1 of 2): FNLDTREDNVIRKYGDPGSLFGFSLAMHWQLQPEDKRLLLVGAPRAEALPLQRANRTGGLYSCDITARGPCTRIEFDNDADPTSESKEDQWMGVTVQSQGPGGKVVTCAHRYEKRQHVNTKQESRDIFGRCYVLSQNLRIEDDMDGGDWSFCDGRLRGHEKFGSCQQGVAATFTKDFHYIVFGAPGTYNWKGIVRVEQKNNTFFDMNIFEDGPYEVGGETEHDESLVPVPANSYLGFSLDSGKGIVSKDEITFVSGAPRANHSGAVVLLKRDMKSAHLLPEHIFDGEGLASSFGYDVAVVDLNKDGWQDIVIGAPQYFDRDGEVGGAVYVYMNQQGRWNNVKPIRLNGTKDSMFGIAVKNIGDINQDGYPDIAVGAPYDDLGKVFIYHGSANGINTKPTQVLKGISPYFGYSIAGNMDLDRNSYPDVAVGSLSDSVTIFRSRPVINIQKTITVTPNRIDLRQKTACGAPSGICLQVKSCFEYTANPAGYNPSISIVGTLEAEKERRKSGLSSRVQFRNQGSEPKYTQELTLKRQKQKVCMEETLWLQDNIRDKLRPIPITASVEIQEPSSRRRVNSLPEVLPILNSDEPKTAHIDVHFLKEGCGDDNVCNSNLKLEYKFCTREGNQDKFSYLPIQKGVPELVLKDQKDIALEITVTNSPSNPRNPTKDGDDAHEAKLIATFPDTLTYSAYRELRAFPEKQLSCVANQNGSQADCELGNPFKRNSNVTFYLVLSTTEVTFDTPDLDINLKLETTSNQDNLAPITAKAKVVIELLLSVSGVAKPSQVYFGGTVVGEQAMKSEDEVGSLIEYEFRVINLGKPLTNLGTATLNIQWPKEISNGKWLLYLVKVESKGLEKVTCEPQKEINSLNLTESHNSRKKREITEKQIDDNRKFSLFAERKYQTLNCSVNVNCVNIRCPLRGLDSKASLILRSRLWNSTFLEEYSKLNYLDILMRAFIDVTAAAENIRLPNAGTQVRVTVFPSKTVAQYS
T1 sequence (P05556 21-728, chain 2 of 2): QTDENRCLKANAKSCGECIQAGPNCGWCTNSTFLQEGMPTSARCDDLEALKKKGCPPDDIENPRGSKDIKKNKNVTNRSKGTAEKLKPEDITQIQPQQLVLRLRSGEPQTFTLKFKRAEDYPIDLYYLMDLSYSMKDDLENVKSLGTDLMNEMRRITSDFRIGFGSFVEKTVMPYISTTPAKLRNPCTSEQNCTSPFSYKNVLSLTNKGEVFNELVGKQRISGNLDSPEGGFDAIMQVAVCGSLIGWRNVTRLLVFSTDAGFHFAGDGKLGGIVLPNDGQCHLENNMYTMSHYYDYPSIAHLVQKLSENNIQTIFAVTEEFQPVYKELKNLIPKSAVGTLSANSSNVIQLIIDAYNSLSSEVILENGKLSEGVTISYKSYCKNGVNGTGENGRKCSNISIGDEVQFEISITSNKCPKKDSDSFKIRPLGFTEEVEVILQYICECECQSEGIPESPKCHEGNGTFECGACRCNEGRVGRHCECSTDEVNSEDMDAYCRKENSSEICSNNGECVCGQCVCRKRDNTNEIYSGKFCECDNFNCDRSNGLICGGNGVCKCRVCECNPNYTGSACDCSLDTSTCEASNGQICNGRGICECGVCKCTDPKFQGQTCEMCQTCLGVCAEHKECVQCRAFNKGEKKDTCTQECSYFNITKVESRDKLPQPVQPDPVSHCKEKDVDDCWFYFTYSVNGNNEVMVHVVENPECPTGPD
The experiment is described as follows: solid-phase integrin binding assay (ELISA): Chimera-511 coated at 10 nM, α6β1 integrin titrated 0.001-100 nM in 1 mM MnCl2. On the procedure:
(§1) The plates were incubated with gentle agitation at 4° C. overnight for coating.
(§2) Integrin binding assay was performed according to the method of Ido et al. (Hiroyuki Ido et al. J. Biol. Chem., 282, 11144-11154, 2007). The specific procedure was as follows. […] Next, TBST supplemented with 1% BSA was added at 200 μL/well, and the plates were incubated with agitation on a shaker (B. Braun Biotech International CERTOMAT MT) at room temperature for 1 hour for blocking. The plates were washed once with 200 μL/well of 0.1% BSA/TBST. α6β1 integrin was diluted to final concentrations of 0.001 nM, 0.003 nM, 0.01 nM, 0.03 nM, 0.1 nM, 0.3 nM, 1 nM, 3 nM, 10 nM, 30 nM, and 100 nM in 0.1% BSA/TBST containing 1 mM MnCl₂ or 10 mM EDTA. The diluted α6β1 integrin solutions were added to the plates at 50 μL/well and allowed to react with agitation using the shaker at room temperature for 3 hours.
(§3) After the reaction, the plates were washed three times with 200 μL/well of 1 mM MnCl₂/0.1% BSA/TBST or 10 mM EDTA/0.1% BSA/TBST. A 1.5 μg/mL solution of a biotin-labeled Velcro antibody (prepared as described in Takagi, J., Erickson, H. P. and Springer, T. A. (2001) Nat. Struct. Biol. 8, 412-416) in 1 mM MnCl₂/0.1% BSA/TBST was added at 50 μL/well and allowed to react with agitation using the shaker at room temperature for 30 minutes. […]

Experiment [3] addresses T1, α6β1 integrin. The experiment in a line: solid-phase integrin binding assay (ELISA): LM511E8 coated at 10 nM, α6β1 integrin titrated 0.001-100 nM in 1 mM MnCl2. On the procedure: as §1, §2, §3

Turning to “α6β1 integrin (from UniProt P23229 24-1011; P05556 21-728) (receptor)”, the Kd in experiment [1] was 0.9 nM. This lies in the sub-nanomolar range.

B1: Chimera-511 (chimeric protein having human fibrinogen fused to an integrin-binding domain of human laminin 511), not treated with thrombin (other)
chain 1: QGVNDNEEGFFSARGHRPLDKKREEAPSLRPAPPPISGGGYRARPAKAAATQKKVERKAPDAGGCLHADPDLGVLCPTGCQLQEALLQQERPIRNSVDELNNNVEAVSQTSSSSFQYMYLLKDLWQKRQKQVKDNENVVNEYSSELEKHQLYIDETVNSNIPTNIGRVRELIAQARGAASKVKVPMKFNGRSGVQLRTPRDLADLAAYTALKFYLQGPEPEPGQGTEDRFVMYMGSRQATGDYMGVSLRDKKVHWVYQLGEAGPAVLSIDEDIGEQFAAVSLDRTLQFGHMSVTVERQMIQETKGDTVAPGAEGLLNLRPDDFVFYVGGYPSTFTPPPLLRFPGYRGCIEMDTLNEEVVSLYNFERTFQLDTAVDRPCARSKSTGDPWLTDGSYLDGTGFARISFDSQISTTKRFEQELRLVSYSGVLFFLKQQSQFLCLAVQEGSLVLLYDFGAGLKKAVPLQPPPPLTSASKAIQVFLLGGSRKRVLVRVERATVYSVEQDNDLELADAYYLGGVPPDQLPPSLRRLFPTGGSVRGCVKGIKALGKYVDLKRLNTTGVSAGCTADLLVGRAMTFHGHGFLRLALSNVAPLTGNVYSGFGFHSAQDSALLYYRASPDGLCQVSLQQGRVSLQLLRTEVKTQAGFADGAPHYVAFYSNATGVWLYVDDQLQQMKPHRGPPPELQPQPEGPPRLLLGGLPESGTIYNFSGCISNVFVQRLLGPQRVFDLQQNLGSVNVSTGCAPALQAQTPGLGPRGLQAHHHHHHHHHH
chain 2: ADSGEGDFLAEGGGVRGPRVVERHQSACKDSDWPFCSDEDWNYKCPSGCRMKGLIDEVNQDFTNRINKLKNSLFEYQKNNKDSHSLTTNIMEILRGDFSSANNRDNTYNRVSEDLRSRIEVLKRKVIEKVQHLARLEGEVRSLLKDISQKVAVYSTCL
chain 3: YVATRDNCCILDERFGSYCPTTCGIADFLSTYQTKVDKDLQSLEDILHQVENKTSEVKQLIKAIQLTYNPDESSKPNMIDAATLKSRKMLEEIMKYEASILTHDSSIEEIMKDIRNLEDIRKTLPSGCFNTPSIEKP
notes: range 31-194;range 2716-3310;range 20-151;range 1761-1786;range 27-132;range 1579-1609; Chains in order: Chimera-α5, Chimera-β1, Chimera-γ1; also called Combination-3
Regarding B1, in the experiment with α6β1 integrin [2], the affinity, expressed as Kd, was 0.58 nM.

B2: Human laminin 511E8 fragment (human laminin α5β1γ1E8) (other)
chain 1: HHHHHHAAEDAAGQALQQADHTWATVVRQGLVDRAQQLLANSTALEEAMLQEQQRLGLVWAALQGARTQLRDVRAKKDQLEAHIQAAQAMLAMDTDETSKKIAHAKAVAAEAQDTATRVQSQLQAMQENVERWQGQYEGLRGQDLGQAVLDAGHSVSTLEKTLPQLLAKLSILENRGVHNASLALSASIGRVRELIAQARGAASKVKVPMKFNGRSGVQLRTPRDLADLAAYTALKFYLQGPEPEPGQGTEDRFVMYMGSRQATGDYMGVSLRDKKVHWVYQLGEAGPAVLSIDEDIGEQFAAVSLDRTLQFGHMSVTVERQMIQETKGDTVAPGAEGLLNLRPDDFVFYVGGYPSTFTPPPLLRFPGYRGCIEMDTLNEEVVSLYNFERTFQLDTAVDRPCARSKSTGDPWLTDGSYLDGTGFARISFDSQISTTKRFEQELRLVSYSGVLFFLKQQSQFLCLAVQEGSLVLLYDFGAGLKKAVPLQPPPPLTSASKAIQVFLLGGSRKRVLVRVERATVYSVEQDNDLELADAYYLGGVPPDQLPPSLRRLFPTGGSVRGCVKGIKALGKYVDLKRLNTTGVSAGCTADLLVGRAMTFHGHGFLRLALSNVAPLTGNVYSGFGFHSAQDSALLYYRASPDGLCQVSLQQGRVSLQLLRTEVKTQAGFADGAPHYVAFYSNATGVWLYVDDQLQQMKPHRGPPPELQPQPEGPPRLLLGGLPESGTIYNFSGCISNVFVQRLLGPQRVFDLQQNLGSVNVSTGCAPALQAQTPGLGPRGLQATARKASRRSRQPARHPA
chain 2: LQHSAADIARAEMLLEEAKRASKSATDVKVTADMVKEALEEAEKAQVAAEKAIKQADEDIQGTQNLLTSIESETAASEETLFNASQRISELERNVEELKRKAAQNSGEAEYIEKVVYTVKQSAEDVKKTLDGELDEKYKKVENLIAKKTEESADARRKAEMLQNEAKTLLAQANSKLQLLKDLERKYEDNQRYLEDKAQELARLEGEVRSLLKDISQKVAVYSTCL
chain 3: EANDILNNLKDFDRRVNDNKTAAEEALRKIPAINQTITEANEKTREAQQALGSAAADATEAKNKAHEAERIASAVQKNATSTKAEAERTFAEVTDLDNEVNNMLKQLQEAEKELKRKQDDADQDMMMAGMASQAAQEAEINARKAKNSVTSLLSIINDLLEQLGQLDTVDLNKLNEIEGTLNKAKDEMKVSDLDRKVSDLENEAKKQEAAIMDYNRDIEEIMKDIRNLEDIRKTLPSGCFNTPSIEKP
notes: range 2534-3327;range 1561-1786;range 1362-1609; Heterotrimer of α5E8, β1E8 and γ1E8, expressed in 293-F cells; also called LM511E8; LM511 E8; not shown: HA tag, N-terminal; FLAG tag, N-terminal
As for B2, the Kd with α6β1 integrin [3] was 0.59 nM.
